Publication PMC6987189, “Native aggregation is a common feature among triosephosphate isomerases of different species” (Scientific Reports, 2020)

System: O=C[C@H](O)COP(=O)(O)O
Experiment: purified protein
Format: biochemical, Giardia duodenalis
Conditions: GAP to DHAP direction, 25 °C, 100 mM TEA, 10 mM EDTA, 0.2 mM NADH, GAP 0.3 to 3 mM

Substance: GlTIM (Giardia duodenalis; C202A)
- Km: 100 ± 10 µM
- kcat: 3280 ± 103 s⁻¹
- kcat/Km: 2.9e+07 M⁻¹ s⁻¹
